According to patent US20260185137:

Assays:
[1] = target: AF594-UBE2W~AF488-Ub conjugate, Q96B02
[2] = target: AF594-UBE2N~AF488-Ub/UBE2V2 conjugate, P61088
Chain of AF594-UBE2N~AF488-Ub/UBE2V2 conjugate, P61088 (P61088 whole entry, looked up): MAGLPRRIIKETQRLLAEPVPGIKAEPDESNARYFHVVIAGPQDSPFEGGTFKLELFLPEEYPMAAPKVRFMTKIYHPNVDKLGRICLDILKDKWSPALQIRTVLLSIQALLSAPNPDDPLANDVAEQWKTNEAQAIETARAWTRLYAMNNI

Chain of AF594-UBE2W~AF488-Ub conjugate, Q96B02 (Q96B02 whole entry, looked up): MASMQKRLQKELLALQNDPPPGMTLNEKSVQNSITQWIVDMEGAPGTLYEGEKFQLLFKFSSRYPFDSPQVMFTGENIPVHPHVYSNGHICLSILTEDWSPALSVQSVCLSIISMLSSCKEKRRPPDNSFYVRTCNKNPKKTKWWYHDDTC

B1: R3-I77R, trimeric RING-foldon construct of rhesus monkey TRIM5alpha with the I77R mutation (protein)
chain: ASGILLNVKEEVTCPICLELLTEPLSLHCGHSFCQACITANHKKSMLYKEGERSCPVCRISYQPENIQPNRHVANRVEKLREVKLSPEEGQKVDGYIPEAPRDGQAYVRKDGEWVFLSTFLHHHHHH
E3 activity (initial slope of Michaelis-Menten curve of FRET decay amplitude), FRET ubiquitin discharge assay [1]: the R3-177R and R1-177R constructs retained less than 10% of the R3-WT and R1-WT E3 activity, respectively
E3 activity (kcat/Km) for ubiquitin discharge, FRET ubiquitin discharge assay [2]: catalysis of ubiquitin discharge from the UBE2N/V2-Ub conjugate is virtually abolished by the I77R mutation in the R1-177R and R3-177R constructs

B2: R3-WT, trimeric RING construct of rhesus monkey TRIM5alpha fused to T4 fibritin foldon (protein)
chain: ASGILLNVKEEVTCPICLELLTEPLSLHCGHSFCQACITANHKKSMLYKEGERSCPVCRISYQPENIQPNRHVANIVEKLREVKLSPEEGQKVDGYIPEAPRDGQAYVRKDGEWVFLSTFLHHHHHH
E3 activity (initial slope of Michaelis-Menten curve of FRET decay amplitude), FRET ubiquitin discharge assay [1]: significantly higher activity of the R3-WT construct in comparison to R2-WT
E3 activity per RING monomer for ubiquitin discharge, FRET ubiquitin discharge assay [2]: the E3 activity per RING monomer is lower in the R3-WT construct than in R2-WT

B3: R2-WT, tandem RING dimer construct of rhesus monkey TRIM5alpha (protein)
chain: ASGILLNVKEEVTCPICLELLTEPLSLHCGHSFCQACITANHKKSMLYKEGERSCPVCRISYQPENIQPNRHVANIVEKLRGSASGILLNVKEEVTCPICLELLTEPLSLHCGHSFCQACITANHKKSMLYKEGERSCPVCRISYQPENIQPNRHVANIVEKLREVKLSPEEGQ
E3 activity (kcat/Km) for ubiquitin discharge, FRET ubiquitin discharge assay [2]: The E3 activity of the R2-WT is also significantly higher than that of the R1-WT

B4: R1-I77R, RING domain construct of rhesus monkey TRIM5alpha with the I77R mutation (protein)
chain: ASGILLNVKEEVTCPICLELLTEPLSLHCGHSFCQACITANHKKSMLYKEGERSCPVCRISYQPENIQPNRHVANRVEKLREVKLSPEE
E3 activity (initial slope of Michaelis-Menten curve of FRET decay amplitude), FRET ubiquitin discharge assay [1]: the R3-177R and R1-177R constructs retained less than 10% of the R3-WT and R1-WT E3 activity, respectively
E3 activity (kcat/Km) for ubiquitin discharge, FRET ubiquitin discharge assay [2]: catalysis of ubiquitin discharge from the UBE2N/V2-Ub conjugate is virtually abolished by the I77R mutation in the R1-177R and R3-177R constructs
